Data reported in patent US20190077860A1 (EISAI R AND D MANAGEMENT, published 2019).
Positions count from the first letter of the chain named.

T1: human EphA1 extracellular region-SEAP-His protein (human, UniProt P21709 26-547)
T1 construct: extracellular domain; also called hEphA1-SEAP-His
T1 sequence (looked up): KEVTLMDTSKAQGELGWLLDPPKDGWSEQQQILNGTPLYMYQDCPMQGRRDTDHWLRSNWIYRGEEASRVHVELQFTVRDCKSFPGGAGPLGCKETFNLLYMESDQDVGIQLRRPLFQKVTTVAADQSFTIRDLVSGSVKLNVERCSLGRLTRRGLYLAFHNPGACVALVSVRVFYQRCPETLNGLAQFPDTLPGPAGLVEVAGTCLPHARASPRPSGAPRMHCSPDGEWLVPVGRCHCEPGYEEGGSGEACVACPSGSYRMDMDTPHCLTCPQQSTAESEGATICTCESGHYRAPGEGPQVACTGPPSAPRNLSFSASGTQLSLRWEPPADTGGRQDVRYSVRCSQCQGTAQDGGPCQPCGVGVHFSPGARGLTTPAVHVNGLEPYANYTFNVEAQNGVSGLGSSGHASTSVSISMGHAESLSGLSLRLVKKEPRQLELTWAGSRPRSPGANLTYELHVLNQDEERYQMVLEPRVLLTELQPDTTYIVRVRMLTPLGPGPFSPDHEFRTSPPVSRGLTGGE

T2: human EphB6 extracellular region-SEAP-His protein (human, UniProt O15197 32-594)
T2 construct: extracellular domain; also called hEphB6-SEAP-His
T2 sequence (looked up): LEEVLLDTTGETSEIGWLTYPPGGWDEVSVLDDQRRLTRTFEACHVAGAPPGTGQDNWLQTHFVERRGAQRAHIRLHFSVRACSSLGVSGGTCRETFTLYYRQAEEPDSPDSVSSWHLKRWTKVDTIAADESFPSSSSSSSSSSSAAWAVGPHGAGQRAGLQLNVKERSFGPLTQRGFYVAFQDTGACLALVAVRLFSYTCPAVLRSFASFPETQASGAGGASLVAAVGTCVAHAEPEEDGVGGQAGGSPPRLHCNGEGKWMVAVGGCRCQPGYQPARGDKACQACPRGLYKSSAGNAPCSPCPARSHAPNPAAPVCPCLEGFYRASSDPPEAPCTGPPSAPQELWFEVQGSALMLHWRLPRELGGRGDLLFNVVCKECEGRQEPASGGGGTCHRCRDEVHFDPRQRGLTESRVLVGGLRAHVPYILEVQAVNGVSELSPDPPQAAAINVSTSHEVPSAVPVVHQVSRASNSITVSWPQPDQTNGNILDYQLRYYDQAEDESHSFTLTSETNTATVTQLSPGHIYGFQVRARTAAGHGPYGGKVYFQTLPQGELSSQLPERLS

T3: human EphA8 extracellular region-SEAP-His protein (human, UniProt P29322 28-542)
T3 construct: extracellular domain; also called hEphA8-SEAP-His
T3 sequence (looked up): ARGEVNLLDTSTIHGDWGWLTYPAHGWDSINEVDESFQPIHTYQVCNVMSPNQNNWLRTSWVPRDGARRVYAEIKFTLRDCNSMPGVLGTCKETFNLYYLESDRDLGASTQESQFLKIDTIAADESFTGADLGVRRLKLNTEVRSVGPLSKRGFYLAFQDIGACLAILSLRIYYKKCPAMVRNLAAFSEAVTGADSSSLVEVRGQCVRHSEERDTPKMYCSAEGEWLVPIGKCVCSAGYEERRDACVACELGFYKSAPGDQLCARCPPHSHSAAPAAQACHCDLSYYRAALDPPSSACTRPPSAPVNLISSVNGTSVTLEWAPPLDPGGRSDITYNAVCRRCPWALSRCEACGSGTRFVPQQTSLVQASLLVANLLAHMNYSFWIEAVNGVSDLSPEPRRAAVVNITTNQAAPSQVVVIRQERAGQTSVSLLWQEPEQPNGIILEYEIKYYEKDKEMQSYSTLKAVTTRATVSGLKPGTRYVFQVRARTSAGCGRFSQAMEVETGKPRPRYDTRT

B1: humanized antibody No. 133 (antibody, human IgG2)
heavy: QVQLVQSGSELKKPGASVKVSCKASGYTFTDYSMHWVRQAPGQGLEWMGWINTETGEPTYAQGFTGRFVFSLDTSVSTAYLQISSLKAEDTAVYYCARIPLYYYGSRYWYFDVWGQGTTVTVSSASTKGPSVFPLAPSSRSTSESTAALGCLVKDYFPEPVTVSWNSGALTSGVHTFPAVLQSSGLYSLSSVVTVPSSNFGTQTYTCNVDHKPSNTKVDKTVERKSCVECPPCPAPPAAAPSVFLFPPKPKDTLMISRTPEVTCVVVDVSHEDPEVQFNWYVDGVEVHNAKTKPREEQFNSTFRVVSVLTVVHQDWLNGKEYKCKVSNKGLPAPIEKTISKTKGQPREPQVYTLPPSREEMTKNQVSLTCLVKGFYPSDIAVEWESNGQPENNYKTTPPMLDSDGSFFLYSKLTVDKSRWQQGNVFSCSVMHEALHNHYTQKSLSLSPG
light: EIVMTQSPATLSVSPGERATLSCRASENIYRNLAWYQQKPGQSPRLLIYAATNLADGIPARFSGSGSGTEYTLTISSLQSEDFAVYYCQHFWGTPWTFGQGTKVEIKRTVAAPSVFIFPPSDEQLKSGTASVVCLLNNFYPREAKVQWKVDNALQSGNSQESVTEQDSKDSTYSLSSTLTLSKADYEKHKVYACEVTHQGLSSPVTKSFNRGEC
notes: human Ig kappa; also called L2-4/HA1
B2: humanized antibody No. 94 (antibody, human IgG1, kappa)
heavy: QVQLVQSGSELKKPGASVKVSCKASGYTFTDYSMHWVRQAPGQGLKWMGWINTETGEPTYAQGFTGRFVFSLDTSVSTAYLQISSLKAEDTAVYYCARIPLYYYGSRYWYFDVWGQGTTVTVSSASTKGPSVFPLAPSSKSTSGGTAALGCLVKDYFPEPVTVSWNSGALTSGVHTFPAVLQSSGLYSLSSVVTVPSSSLGTQTYICNVNHKPSNTKVDKRVEPKSCDKTHTCPPCPAPPAAAPSVFLFPPKPKDTLMISRTPEVTCVVVDVSHEDPEVQFNWYVDGVEVHNAKTKPREEQFNSTFRVVSVLTVVHQDWLNGKEYKCKVSNKGLPAPIEKTISKTKGQPREPQVYTLPPSREEMTKNQVSLTCLVKGFYPSDIAVEWESNGQPENNYKTTPPMLDSDGSFFLYSKLTVDKSRWQQGNVFSCSVMHEALHNHYTQKSLSLSPG
light: B1 light
notes: human Ig kappa; also called L2-4/HA2
B3: humanized antibody No. 73 (antibody, human IgG1, kappa)
heavy: B2 heavy with V2I, Q62D, G63D, T65K
light: B1 light
notes: human Ig kappa; also called L2-4/HK4
B4: humanized antibody No. 71 (antibody, human IgG1, kappa)
heavy: B2 heavy with V2I
light: B1 light
notes: human Ig kappa; also called L2-4/HA4
B5: humanized antibody No. 136 (antibody, human IgG2)
heavy: B1 heavy with E46K, Q62D, G63D, T65K
light: B1 light
notes: human Ig kappa; also called L2-4/HK2
B6: humanized antibody No. 137 (antibody, human IgG2)
heavy: B1 heavy with V2I, E46K, Q62D, G63D, T65K
light: B1 light
notes: as for B3
B7: humanized antibody No. 93 (antibody, human IgG1, kappa)
heavy: B2 heavy with K46E
light: B1 light
notes: as for B1
B8: humanized antibody No. 95 (antibody, human IgG1, kappa)
heavy: B2 heavy with K46E, Q62D, G63D, T65K
light: B1 light
notes: human Ig kappa; also called L2-4/HK1
B9: humanized antibody No. 135 (antibody, human IgG2)
heavy: B1 heavy with Q62D, G63D, T65K
light: B1 light
notes: as for B8
B10: humanized antibody No. 96 (antibody, human IgG1, kappa)
heavy: B2 heavy with Q62D, G63D, T65K
light: B1 light
notes: as for B5

Experiments:
Assay in all cases: ELISA
[1] = molecular target: T4, human EphA5 extracellular region-SEAP-His protein (human, UniProt P54756 25-573)
T4 construct: extracellular domain; also called hEphA5-SEAP-His
T4 sequence (P54756 25-573): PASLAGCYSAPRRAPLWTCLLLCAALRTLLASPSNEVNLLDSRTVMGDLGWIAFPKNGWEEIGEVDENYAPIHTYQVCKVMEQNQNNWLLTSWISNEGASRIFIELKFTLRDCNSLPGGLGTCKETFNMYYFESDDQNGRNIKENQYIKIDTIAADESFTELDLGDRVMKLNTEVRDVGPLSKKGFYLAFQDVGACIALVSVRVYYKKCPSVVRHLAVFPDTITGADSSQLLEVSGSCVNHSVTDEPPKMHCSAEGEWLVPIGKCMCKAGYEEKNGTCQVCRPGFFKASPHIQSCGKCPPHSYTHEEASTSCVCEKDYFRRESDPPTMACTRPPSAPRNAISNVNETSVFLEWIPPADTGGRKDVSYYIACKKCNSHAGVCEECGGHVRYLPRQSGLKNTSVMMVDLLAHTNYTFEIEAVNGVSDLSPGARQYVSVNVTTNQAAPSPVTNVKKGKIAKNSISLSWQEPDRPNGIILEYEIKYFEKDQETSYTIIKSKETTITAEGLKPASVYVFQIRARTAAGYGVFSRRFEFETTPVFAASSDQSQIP

[2] = molecular target: T5, human EphA4 extracellular region-SEAP-His protein (human, UniProt P54764 20-547)
T5 construct: also called hEphA4-SEAP-His
T5 sequence (P54764 20-547): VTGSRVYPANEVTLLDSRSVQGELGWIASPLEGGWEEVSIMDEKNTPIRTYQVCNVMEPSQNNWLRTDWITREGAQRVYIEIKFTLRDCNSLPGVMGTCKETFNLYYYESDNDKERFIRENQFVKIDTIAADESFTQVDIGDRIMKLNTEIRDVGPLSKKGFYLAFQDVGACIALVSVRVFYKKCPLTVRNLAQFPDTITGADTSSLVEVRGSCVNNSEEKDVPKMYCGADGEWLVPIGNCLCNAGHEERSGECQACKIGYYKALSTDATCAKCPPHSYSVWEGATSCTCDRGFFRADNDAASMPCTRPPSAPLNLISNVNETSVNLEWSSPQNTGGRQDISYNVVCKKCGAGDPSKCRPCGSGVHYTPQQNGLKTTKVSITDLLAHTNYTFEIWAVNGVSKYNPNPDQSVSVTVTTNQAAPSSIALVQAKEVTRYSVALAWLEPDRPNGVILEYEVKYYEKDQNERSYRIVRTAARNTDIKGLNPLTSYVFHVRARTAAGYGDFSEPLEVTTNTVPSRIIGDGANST

[3] = molecular target: T6, human EphA2 extracellular region-SEAP-His protein (human, UniProt P29317 24-537)
T6 construct: extracellular domain; also called hEphA2-SEAP-His
T6 sequence (P29317 24-537): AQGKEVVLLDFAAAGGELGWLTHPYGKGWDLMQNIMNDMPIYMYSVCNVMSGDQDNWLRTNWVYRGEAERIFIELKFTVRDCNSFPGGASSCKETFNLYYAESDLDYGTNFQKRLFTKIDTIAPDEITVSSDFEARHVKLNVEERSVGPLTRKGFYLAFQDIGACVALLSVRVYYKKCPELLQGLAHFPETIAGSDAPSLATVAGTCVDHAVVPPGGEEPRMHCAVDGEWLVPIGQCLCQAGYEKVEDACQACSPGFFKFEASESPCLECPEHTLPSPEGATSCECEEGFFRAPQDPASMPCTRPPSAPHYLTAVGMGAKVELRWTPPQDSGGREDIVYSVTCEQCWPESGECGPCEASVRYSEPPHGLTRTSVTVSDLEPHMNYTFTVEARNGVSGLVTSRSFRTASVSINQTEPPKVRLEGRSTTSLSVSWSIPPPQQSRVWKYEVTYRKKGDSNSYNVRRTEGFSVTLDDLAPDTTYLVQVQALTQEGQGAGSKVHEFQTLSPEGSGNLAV

[4] = molecular target: T1, human EphA1 extracellular …
[5] = molecular target: T2, human EphB6 extracellular …
[6] = molecular target: T3, human EphA8 extracellular …

| Binder | A450 as % of hEphA4-SEAP-His [1] [%] | A450 as % of hEphA4-SEAP-His [2] [%] | A450 as % of hEphA4-SEAP-His [3] [%] | A450 as % of hEphA4-SEAP-His [4] [%] | A450 as % of hEphA4-SEAP-His [5] [%] | A450 as % of hEphA4-SEAP-His [6] [%] |
| --- | --- | --- | --- | --- | --- | --- |
| B1 | 4.7 | 100 | 4.7 | 4.9 | 4.8 | 4.7 |
| B2 | 6.5 | 100 | 6.4 | 6.5 | 6.4 | 7 |
| B3 | 6 | 100 | 5.7 | 6 | 5.6 | 5.8 |
| B4 | 5.6 | 100 | 5.7 | 5.6 | 5.3 | 5.3 |
| B5 | 5.2 | 100 | 5.1 | 5.3 | 5.5 | 5.4 |
| B6 | 5.7 | 100 | 5.4 | 6.1 | 5.7 | 5.9 |
| B7 | 4.9 | 100 | 5 | 5 | 4.9 | 5 |
| B8 | 4.6 | 100 | 4.2 | 4.5 | 4.7 | 4.4 |
| B9 | 5 | 100 | 5 | 5.2 | 5.3 | 5 |
| B10 | 6 | 100 | 5.3 | 5.6 | 5.5 | 5.4 |
